In assay [1] the target is actin filaments grown from rabbit skeletal muscle actin (unlabeled ADP-F-actin) (rabbit) (UniProt P68135). Put plainly: TIRF microscopy with microfluidics.
Assay [2] has the same target. Put plainly: single-molecule TIRF microscopy.

The text below walks through data of article PMC7851853.

As for “mNeonGreen–Tpm1.8 (tropomyosin isoform Tpm1.8 fused at its N-terminus to an alanine–serine extension and to mNeonGreen) (natural protein)”, in assay [1], the BB, rate constant of binding to the domain edge at the barbed end (length) worked out at 1.19 m⋅M^-1⋅s^-1; the BBP, combined binding rate constant at both domain edges (length) amounted to 1.83 m⋅M^-1⋅s^-1; the BBP, combined binding rate constant at both domain edges (molecules) came to 5.6e+07 M^-1⋅s^-1; the BP, rate constant of binding to the domain edge at the pointed end (length) was 0.64 m⋅M^-1⋅s^-1. Further, in assay [1], the RB, rate of release from the domain edge at the barbed end (length) stood at 1.98e-09 m⋅s^-1; the RB, rate of release from the domain edge at the barbed end (molecules) worked out at 0.061 s⁻¹; the RBP, combined release rate at both domain edges (length) came out at 3.05e-09 m⋅s^-1; the RBP, combined release rate at both domain edges (molecules) is 0.094 s⁻¹. In assay [1], the RP, rate of release from the domain edge at the pointed end (length) came to 1.07e-09 m⋅s^-1; the RP, rate of release from the domain edge at the pointed end (molecules) amounted to 0.033 s⁻¹; the critical concentration for elongation (affinity at the domain edge) came to 1.65 nM; the half-life of a molecule bound at the domain edge at the barbed end was 11 s. In assay [1], this substance came in with a half-life of a molecule bound at the domain edge at the pointed end of 21 s. In assay [2], this substance showed a Kd of an isolated Tpm1.8 molecule on the actin filament (RI/BI) of 500 µM; an RI, rate of release of an isolated Tpm from the actin filament (length) above 4.13e-08 m⋅s^-1; an RI, rate of release of an isolated Tpm from the actin filament (molecules) above 1.25 s⁻¹; a half-life of the complex of an isolated Tpm1.8 molecule and the actin filament below 0.6 s.
